The target of assay [1] is OhyA lacking helices α19 and α20 (OhyA(ΔHTH)), His-tagged (Staphylococcus aureus). Briefly: mass photometry; OneMP mass photometer; final concentration 100 nM protein; dilute, equilibrium conditions.
Assay [2] has the same target. Description: SEC-MALS; Superose 6 Increase 10/300 GL; 20 mM Tris, 200 mM NaCl, pH 7.6; 25 °C; protein at 2 mg/ml, 100 μl injected. Background: In gel filtration, larger molecules generally elute earlier.
Assay [3] concerns the target oleate hydratase (OhyA), recombinant full-length, His-tagged (Staphylococcus aureus). Briefly: cryo-EM single-particle images (no structure solved); grids of OhyA prepared in the absence of detergent.
For assay [4] the target is unchanged. Briefly: mass photometry; OneMP mass photometer; final concentration 100 nM protein; dilute, equilibrium conditions.
The target is the same in assay [5]. Description: SEC-MALS; Superose 6 Increase 10/300 GL; 20 mM Tris, 200 mM NaCl, pH 7.6; 25 °C; protein at 2 mg/ml, 100 μl injected.

A word on the stoichiometry N: it is the number of molecules, sites or subunits per partner or assembly.

In assay [1], “OhyA lacking helices α19 and α20 (OhyA(ΔHTH)), His-tagged (domain or fragment)” showed a percent dimer of 20% and a percent monomer of 75%. In assay [2], the percent dimer was determined as 89.8% and the stoichiometry N is 2.
With “oleate hydratase (OhyA), recombinant full-length, His-tagged (enzyme)”, the stoichiometry N is 4 in assay [3], 2 in assay [4] and 2 in assay [5]. The percent dimer in assay [4] was found to be 86%; in assay [5] it was 84.6%.

Source of the values: PMC10847778.
